{
  "source": "paper PMC5898484",
  "about": "“Two Differential Binding Mechanisms of FG-Nucleoporins and Nuclear Transport Receptors” (Cell Reports, 2018)",
  "key": {"[1]": {"molecular_target": "FG-Nup214 labelled for stopped-flow anisotropy", "experiment": "stopped-flow fluorescence, dissociation; preformed FG-Nup⋅NTR complex rapidly mixed with 100× (2 μM) excess of unlabeled FG-Nup"}, "[2]": {"molecular_target": "FG-Nup214^Glc labelled for stopped-flow kinetics", "experiment": "stopped-flow fluorescence anisotropy; association under pseudo-first order conditions (>10-fold excess of the NTR); kobs from single exponential fits, kon from the slope of kobs versus NTR concentration; excitation 532 nm"}, "[3]": {"molecular_target": "FG-Nup214 labelled for stopped-flow anisotropy", "experiment": "stopped-flow fluorescence anisotropy; association under pseudo-first order conditions (>10-fold excess of the NTR); kobs from single exponential fits, kon from the slope of kobs versus NTR concentration; excitation 532 nm"}, "[4]": {"molecular_target": "FG-Nup214^117 proline triple mutant A1927P/A2017P/A2019P", "experiment": "single-molecule FRET (smFRET) titration; fractions of bound (low E_FRET) and unbound (high E_FRET) FG-Nup214^117 as a function of CRM1 concentration, with 1 μM RanGTP"}, "[5]": {"molecular_target": "FG-Nup214^117 (117-aa fragment of FG-Nup214), wild type, labelled for FRET", "experiment": "single-molecule FRET (smFRET) titration; fractions of bound (low E_FRET) and unbound (high E_FRET) FG-Nup214^117 as a function of CRM1 concentration, with 1 μM RanGTP"}, "[6]": {"molecular_target": "FG-Nup214^117 proline double mutant A1927P/A2017P", "experiment": "single-molecule FRET (smFRET) titration; fractions of bound (low E_FRET) and unbound (high E_FRET) FG-Nup214^117 as a function of CRM1 concentration, with 1 μM RanGTP"}, "[7]": {"molecular_target": "FG-Nup153 labelled for stopped-flow kinetics", "experiment": "stopped-flow fluorescence, dissociation; preformed FG-Nup⋅NTR complex rapidly mixed with 100× (2 μM) excess of unlabeled FG-Nup"}, "[8]": {"molecular_target": "FG-Nup153^Glc labelled for stopped-flow kinetics", "experiment": "stopped-flow fluorescence anisotropy; association under pseudo-first order conditions (>10-fold excess of the NTR); kobs from single exponential fits, kon from the slope of kobs versus NTR concentration; excitation 532 nm"}, "[9]": {"molecular_target": "T1, CRM1 (export receptor, exportin) (UniProt O14980 1-1071)", "T1 construct": "exportin CRM1; Construct details in the Supplemental Experimental Procedures; also called exportin CRM1", "T1 sequence (O14980 whole entry)": "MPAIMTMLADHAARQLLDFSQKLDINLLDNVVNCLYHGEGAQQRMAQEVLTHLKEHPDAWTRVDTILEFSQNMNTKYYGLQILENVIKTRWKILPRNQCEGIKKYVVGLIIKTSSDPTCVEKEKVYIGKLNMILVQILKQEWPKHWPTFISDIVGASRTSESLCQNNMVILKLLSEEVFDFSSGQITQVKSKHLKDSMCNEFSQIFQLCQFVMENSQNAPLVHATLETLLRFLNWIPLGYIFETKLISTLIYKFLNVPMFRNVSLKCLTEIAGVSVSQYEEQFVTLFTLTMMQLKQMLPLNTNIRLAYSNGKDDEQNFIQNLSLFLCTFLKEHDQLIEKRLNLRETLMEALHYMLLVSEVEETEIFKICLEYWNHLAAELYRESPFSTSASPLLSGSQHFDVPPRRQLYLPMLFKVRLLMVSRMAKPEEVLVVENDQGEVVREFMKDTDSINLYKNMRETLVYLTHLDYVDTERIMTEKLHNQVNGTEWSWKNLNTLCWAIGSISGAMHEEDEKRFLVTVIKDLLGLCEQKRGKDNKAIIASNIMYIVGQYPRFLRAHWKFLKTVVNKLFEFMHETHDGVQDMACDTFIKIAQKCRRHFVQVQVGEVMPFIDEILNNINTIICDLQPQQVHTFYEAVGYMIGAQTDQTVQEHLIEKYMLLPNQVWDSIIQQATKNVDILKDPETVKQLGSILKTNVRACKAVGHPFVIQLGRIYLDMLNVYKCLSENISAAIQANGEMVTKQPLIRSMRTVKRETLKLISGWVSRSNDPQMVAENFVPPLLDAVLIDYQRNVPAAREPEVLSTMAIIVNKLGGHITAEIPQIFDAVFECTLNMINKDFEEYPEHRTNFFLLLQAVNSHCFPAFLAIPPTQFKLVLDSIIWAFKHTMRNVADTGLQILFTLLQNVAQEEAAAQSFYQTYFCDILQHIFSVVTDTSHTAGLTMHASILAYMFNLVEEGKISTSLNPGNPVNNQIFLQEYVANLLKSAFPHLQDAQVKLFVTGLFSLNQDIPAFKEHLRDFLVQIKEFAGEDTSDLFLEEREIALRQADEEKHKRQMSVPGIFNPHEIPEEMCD", "experiment": "stopped-flow fluorescence (donor signal of a FRET-labelled sample); association; donor signal change of FRET-labelled FG-Nup214 instead of anisotropy", "conditions": "both partners purified"}},
  "data": [
    {"molecule": "CRM1⋅RanGTP complex (from UniProt O14980 1-1071; P62826 1-216)", "values": [
      {"measurement": "complex half-life", "setting": "[1]", "value": 5, "unit": "s"},
      {"measurement": "koff", "setting": "[1]", "value": 0.14, "unit": "s⁻¹"},
      {"measurement": "kon", "setting": "[2]", "value": "1.3e+07", "unit": "M⁻¹ s⁻¹"},
      {"measurement": "kon", "setting": "[3]", "value": "2.1e+07", "unit": "M⁻¹ s⁻¹"},
      {"measurement": "Kd", "setting": "[4]", "value": 222, "unit": "nM"},
      {"measurement": "Kd", "setting": "[5]", "value": 35, "unit": "nM"},
      {"measurement": "Kd", "setting": "[6]", "value": 53, "unit": "nM"}
    ]},
    {"molecule": "Importinβ (import receptor) (from UniProt Q14974 1-876)", "values": [
      {"measurement": "complex half-life", "setting": "[7]", "value": 0.08, "unit": "s"},
      {"measurement": "koff", "setting": "[7]", "value": 8.7, "unit": "s⁻¹"},
      {"measurement": "kon", "setting": "[8]", "value": "8.5e+08", "unit": "M⁻¹ s⁻¹"}
    ]},
    {"molecule": "CRM1 (export receptor, exportin) (from UniProt O14980 1-1071)", "values": [
      {"measurement": "kon", "setting": "[2]", "value": "3.8e+07", "unit": "M⁻¹ s⁻¹"},
      {"measurement": "kon", "setting": "[3]", "value": "4e+07", "unit": "M⁻¹ s⁻¹"}
    ]},
    {"molecule": "FG-Nup214 (FG domain of Nup214), double-labelled for FRET (domain or fragment, Alexa594-maleimide (acceptor) on the Cys introduced at 1,905; p-acetylphenylalanine (AcF) at 2,043 labelled with Alexa488-hydroxylamine (donor)) ATTTSVAPPAATSTSSTAVFGSLPVTSAGSSGVISFGGTSLSAGKTSFSFGSQQTNSTVPPSAPPPTTAATPLPTSFPTLSFGSLLSSATTPSLPMSAGRSTEEATSSALPEKPGDSEVSASAASLLEEQQSAQLPQAPPQTSDSVKKEPVLAQPAVSNSGTAASSTSLVALSAEATPATTGVPDARTEAVPPASSFSVPGQTAVTAAAISSAGPVAVETSSTPIASSTTSIVAPGPSAEAAAFGTVTSGSSVFAQPPAASSSSAFNQLTNNTATAPSATPVFGQVAASTAPSLFGQQTGSTASTAAATPQVSSSGFSSPAFGTTAPGVFGQTTFGQASVFGQSASSAASVFSFSQPGFSSVPAFGQPASSTPTSTSGSVFGAASSTSSSSSFSFGQSSPNTGGGLFGQSNAPAFGQSPGFGQGGSVFGGTSAATTTAATSGFSFCQASGFGSSNTGSVFGQAASTGGIVFGQQSSSSSGSVFGSGNTGRGGGFFSGLGGKPSQDAANKNPFSCASGGFGSTATSNTSNLFGNSGAKTFGGFASSSFGEQKPTGTFSSGGGSVASQGFGFSSPNKTGGFGAAPVFGSPPTFGGSPGFGGVPAFGSAPAFTSPLGSTGGKVFGEGTAAASAGGFGFGSSSNTTSFGTLASQNAPTFGSLSQQTSGFGTQSSGFSGFGSGTGGFSFGSNNSSVQGFGGWRS", "values": [
      {"measurement": "kon", "setting": "[9]", "value": "3e+07", "unit": "M⁻¹ s⁻¹"}
    ]}
  ]
}
